# Laboratory results published in the DeepSol protein solubility set.
# Assay: soluble on expression in E. coli; label from the status in PepcDB or PDB records
row,Sequence,soluble on expression in E. coli
1,MGSDKIHHHHHHMQDLVQAYKEEKNARIKERILAVKLHVVDGKSEKEVSKMLNKGYSTIKLWIGKYKKEGLDGLKDKPRSGRPRKVEEEKIKQILEDKPQKYGIQQEYWTMKTLKIALQEQGIEYKKSRLYELVHELGYNLVKPRPTNIQAEKDKWEDFKKIKKLERKALFFLDECRTVISTSIKKVLAKVGSKPVMRVNIGFSSIYVILAINAWTGEVVVSLAKRPNSESVKYFLRYFKRRVGSGRVYMVMDNYSPHKTKGTLEVCRRKGIHPVFTPPYSPELNMAEAVFKSLKNYMSNKIFYTIEDVKNCIKQFFEENKYRFNLNAITYLGLDKIEV,not soluble
2,GPGSGPVFVQEPSHVMFPLDSEEKKVKLSCEVKGNPKPHIRWKLNGTDVDIGMDFRYSVVDGSLLINNPNKTQDAGTYQCIATNSFGTIVSREAKLQFAYLENFKTRTRSTVSVRRGQGMVLLCGPPPHSGELSYAWIFNEYPSYQDNRRFVSQETGNLYIAKVEKSDVGNYTCVVTNTVTNHKVLGPPTPLILRNDGVMGEYEPKIEVQFPETVPAEKGTTVKLECFALGNPVPTILWRRADGKPIARKARRHKSNGILEIPNFQQEDAGSYECVAENSRGKNVAKGQLTFYAQPNWVQIINDIHVAMEESVFWECKANGRPKPTYRWLKNGDPLLTRDRIQIEQGTLNITIVNLSDAGMYQCVAENKHGVIFSSAELSVIAE,soluble
3,MSLTQIFAHRGSKVDCPENTLAAFKKAIQVGCDGIEIDVHRTKDNQLVVIHDEAVDRTSNGSGLVRQLTLKQIRMLDAGSWFHPAYFCEKIPTLEEVLNFLEESGFQGTLNLEIKTNRYPYPKIEKQIAQTMQAKKRSFSHIYSSFNLFSLYVMRKHDPKAELAYLMKFHPFHFWLAQQLKFIKTVHSHSSFYENQVTKRKNKKPFRLWTVNNDDDMKKFFLSGIEGIITDKPEEAVKLRKSLQTKEGHHHHHH,not soluble
4,MAHHHHHHMLRRVSLSALVQRVAAGAVIATAGRTIVVFSQQHHILESNQRARNSPSNVWIEDWEADRLGMKPEPGALPTQLVLDKQLELFNFDQLLSPPEVMEAPKHSSYSSRKVYGERLQFELNDRAQRHSYQSKWWITRGQAYKENLQFKANARSSILLTKSQIKLFHSSQLSGGEALQQYPVSGGSRRVYSKKGEAFQLLQDHIKSNDFNSGLYFTRRQMEFFKLAPLPDQVPVVQEAATGDRHLIYNVDQLEDPHLALKTLQRAPVNVPTFLLSGEPIMSENTRKFPKTFRSNYWLTGRDAELYQWPIKESERRRGVPFSTGTSAPVQYELFNVEQLSNPDEAFARAGLLIQ,soluble
5,MAHHHHHHMQVTETVLARAVIKRRSPQLWGAPGAPIIRMRGHHVVWKFQSYDLVVEHTHKRRNSDIRLLHYLGKHCPHPQKSLWSPDTPVAQDRHLFMLTTVDIDAFKYWFGVKRCRLSMKPWALLAKAGLLPPSLTQNSKIMPKPLFDKESLMRYYLANRKDEDVMAREKYLNYENSMVKTEEERAAERPVAPYL,soluble
6,MGSDKIHHHHHHMSNPAYTAMWEKLNLDIPAHDGLLEVLGKFYGDIYMSQQGRLQGMEYLDFVLSEVHGLRIQELQQAKEQGKKIIGTFCVFVPEEITLAAGAVHVGLCSGADAGTEEAEKLVPRNTCALIKSFIGFKLARLCPFTESCDLVVGETTCDGKKKAYEAFAEHVPMHVMEVPNTKSDAARDLFKTEVLRYMQALQQLTGTAITPQALASGIRAVNAKRRALQRLSALRSADPAPISGRDALLINQVSFYDDPERFTHSINALCDQMEERIARKEGIAPAGTPRLLLSGCPMAVPNWKLPYIMESSGAVIVGEESCIGTRNTRDLVDESQETLDGMIDALVDRYMKIDCACFTPNTERLHNVTAMAQELKADGIVHYALKFCQPYAHEAFKIEKAAREKDIPVLSVETDYSMEDAEQLKTRVEAFVEMVRG,not soluble
7,MGSDKIHHHHHHMNQKTRLTLILDELKTHPSLSLKDIMQLTGTSRDTARRDIVKLAAHNLAERNYGGISRPNTFNKLDQYLDRDDDLLQTKRALAHTASSYLLNDALLFLDISTTVACLPQYLQSKHPGMIVTNSLDIADQALRHSNFQTRILGGTLDAQQRCVQGADSILALHKFRFTTTVLSCAGLTADGVYYAYESDIALKETLRAQSDRLVLLFDHTKVNVSHNFNLLALSDFDYFVTDQPLPDNLATKIAPDKLIYL,not soluble
8,MPSDIPKTRLETEGTTQHTSPLRATCHRVFSLNAGRKAGEQYHLFCTSKSDNSTCLDGPARVVLRDILDNLYNRISSMPRANEIKKGMVLNYNGKLLIVKDIDIQSPTARGAATLYKMRFSDVRTGLKVEERFKGDDIVDTVTLSRRGVDFSYVDGNEYVFMDKEDYTPYTFTKDQIEEELLFMPEGGMPDMQVLTWDGQLLALELPQTVDLEIVETAPGIKGASASARNKPATLSTGLVIQVPEYLSAGEKIRIHIEERRYMGRAD,not soluble
9,MTSPSSASPDGHGARLDAQSIRFERLLPGPIERVWAWLADADKRARWLAGGELPRQPGQTFELHFNHAALTAETAPARYAQYDRPIVARHTLLRCEPPRVLALTWGGGAGEAPSEVLFELSEAGEQVRLVLTHTRLADRAAMLDVAGGWHAHLAVLAGKLAGQAPPPFWTTLAQAEQDYEQRLLEHHHHHH,soluble
10,MGSDKIHHHHHHMEKSEEKEIICRMFNSPLPHPSQNHLLAALPAMELGDLIPHLELIHMRAGDILCEAGDQLPYAYFPASAIISLHYILENGASSEIANVGREGMLGVSLFMGGETSSNWATVQIPGFAYRLKAAFLSQELKRGGQLQWILLRYSQALITQIAQIGVCNRYHTIEQQLCRWFLLTLDRLDSSELSMTQELIANALGVSRESVAGVAGKLQGRGIIRYQRGHITVLNRTGLETGACECYETIKKEFDDALDDVRKPTLHQGDQSSKTLPLL,not soluble
11,MNMDFNLFMNDIVRQARQEITAAGYTELKTAEEVDEALTKKGTTLVMVNSVCGCAGGIARPAAYHSVHYDKRPDQLVTVFAGQDKEATARARDYFEGYPPSSPSFAILKDGKIMKMVERHEIEGHEPMAVVAKLQEAFEEYCEEV,not soluble
12,MHKTHSTMSGKSMKVIGVLALQGAFLEHTNHLKRCLAENDYGIKIEIKTVKTPEDLAQCDALIIPGGESTSMSLIAQRTGLYPCLYEFVHNPEKVVWGTCAGLIFLSAQLENESALVKTLGVLKVDVRRNAFGRQAQSFTQKCDFSNFIPGCDNFPATFIRAPVIERILDPIAVKSLYELPVNGKDVVVAATQNHNILVTSFHPELADSDTRFHDWFIRQFVSN,soluble
13,MSLDPQYDGVWRQSLALLAQDTAGVIPSSTAVKWLTDQQCANGAFAPFRADPAKACDAKTPVDTNNTAAAVQALWAVGGHGDVIEEALGWLKSVQNEDGGWGYVPGTPSDANSTSVVIGALTATETDPAKVVKDGKSPYDALLTFALPCAKDKGAGAFAFQPDKDGKLLPNADATAAGVLGTLGEGLVAEAGKKTGAASCADADQPDRERAAANAAAYLTDTLAKDGHLVSALGGSADQPDYGNTADAVVALAAQGGADKAAEPLAWLKKNAAKWAGEGHHHHHH,soluble
14,MTRTPLTLEQLNALSDDAFTEHFAGVLEHSPHYARRAAAGRPFADVEEVAAAFARAVAADEPGAQVQLIRAHPDLAGKAALAGELTAESASEQTSAGLDRLSPEEYAEFQRLNAAYHERFGLPYVVCVRENTKDTIFEGARRRLTHTQEEEQAAALHEIGRIARLRILDLVQEGRQEKRMDGRLIRIPLEHHHHHH,soluble
15,MGKRMVVVGGVAGGASAAAKAKRENPELEVVVYEKSGWVSYGACGLPYVLSGEIPRLERLVARTPEEFRKQGVLVRTRHEVVDVDYELRTLTVHDHAEGRTFQDRFDHLVLATGARPSLPPIPGTEQEGVYTLRTMEDGERLLKALPQARRAAILGAGYIGLEAAEAFRKRGLQVTLLEAKDRPLPHWDPEVGALLKEELERHGVEVWTGVKVEAFRGMGRVEAVETSEGVVPADLVLLATGIRPNTELAQAMGVALGPTGAIATDERMRTNLEGVYAAGDVAESFHRVLKRPYWLPLGDVANKHGRTAGSVIAGREARFLGVVGTAIFKAFDLAVATTGLSLEGALKEGFWAKKVFIQSRDGAHYYPGSGPLWVELVYEEGTGRLLGGAVVARGHGALRIDVLAALLHREGSVEDLLALDLAYAPPFSPVWDPLLIAAQQAR,soluble
16,CSSPKPDAEEQGVPVSPTASDPALLAEIRQSLDATKGLTSVHVAVRTTGKVDSLLGITSADVDVRANPLAAKGVCTYNDEQGVPFRVQGDNISVKLFDDWSNLGSISELSTSRVLDPAAGVTQLLSGVTNLQAQGTEVIDGISTTKITGTIPASSVKMLDPGAKSARPATVWIAQDGSHHLVRASIDLGSGSIQLTQSKWNEPVNVD,soluble
17,MDEEPERTKRWEGGYERTWEILKEDESGSLKATIEDILFKAKRKRVFEHHGQVRLGMMRHLYVVVDGSRTMEDQDLKPNRLTCTLKLLEYFVEEYFDQNPISQIGIIVTKSKRAEKLTELSGNPRKHITSLKKAVDMTCHGEPSLYNSLSIAMQTLKHMPGHTSREVLIIFSSLTTCDPSNIYDLIKTLKAAKIRVSVIGLSAEVRVCTVLARETGGTYHVILDESHYKELLTHHVSPPPASSSSECSLIRMGFPQHTIASLSDQDAKPSFSMAHLDGNTEPGLTLGGYFCPQCRAKYCELPVECKICGLTLVSAPHLARSYHHLFPLDAFQEIPLEEYNGERFCYGCQGELKDQHVYVCAVCQNVFCVDCDVFVHDSLHCCPGCIHKIPAPSGV,soluble
18,SDKLNKITVPASQKLRQLQKMVHDIKNNEGGIMNKIKKLKVKAPPSVPRRDYASESPADEEQQWSDDFDSDYENPDEHSDSEMYVMPAEENADDSYEPPPVEQETRPVHPALPFARGEYIDNRSSQRHSPPFSKTLPSKPSWPSEKARLTSTLPALTALQKPQVPPKPKGLLEDEADYVVPVEDNDENYIHPTESSSPPPEKAPMVNRSTKPNSSTPASPPGTASGRNSGAWETKSPPPAAPSPLPRAGKKPTTPLKTTPVASQQNASSVCEEKPIPAERHRGSSHRQEAVQSPVFPPAQKQIHQKPIPLPRFTEGGNPTVDGPLPSFSSNSTISEQEAGVLCKPWYAGACDRKSAEEALHRSNKDGSFLIRKSSGHDSKQPYTLVVFFNKRVYNIPVRFIEATKQYALGRKKNGEEYFGSVAEIIRNHQHSPLVLIDSQNNTKDSTRLKYAVKVS,soluble
19,FHMNRVTGELGNRPLFSIADFTFYQGISCILGDNGVGKSTLFRSILQFQKYKGSITWKGSVLKKKKSLYRDLTGVVQEAEKQFIRVSLREELQLDGPDSERNQRIFQALRYFDLEQAVDKSPYQLSGGQQKILQLLTILTSKASVILLDEPFAGLDDRACHYFCKWIVEERNQGRSFLLISHRLDPLISVVDYWIEMTSQGLRHVKEVTITKPLTSQSSNTQGEVR,soluble
